{
  "source": "the DeepSol protein solubility set",
  "data": [
    {"assay": "soluble on expression in E. coli; label from the status in PepcDB or PDB records", "values": [
      {"sequence": "MSLELMEEVDRTVHHMQDEAANFPDPADRASQEEEFSLELRARDRERKLIKKIDETLQLIEDEEYGWCDSCGVEIGIRRLEEGHHHHHH", "soluble on expression in E. coli": "not soluble"},
      {"sequence": "MSLELTRYEIIKILMEYVTDEIVVCNIGIPSKELFKINDREKNFYMLGSMGLSSSIGHGLALSVNEKVIAIDGDGSVLMNMGSLATIGKTTPKDFLLLIVDNCAYGSTGNQETHSTCTDLYQVSKACGIDSIGVFNEEQLRDAVKLALSESGTKVIVAKARPHNENVPNINLVPTEIKHRFMNAIKKEGHHHHHH", "soluble on expression in E. coli": "not soluble"},
      {"sequence": "MSLENKETTTTTTTTNNGSDKKKRSLKIDLHTHILPKNWPNLKEKYGYGGWVSLDHHCSCKAKMMIDGKFFREIDSNCWDPDVRIQELNRDDVDIQVLSTVPVMFGYWAKPQDALDLAQYLNDHIAQVVSENPKRFIGLGSLPMQCTESSIQELRRCILELGLPGIQIGSNVNGKNLDDPSLFPIFEECEKLGAAVFIHPWEMVGKDRMPQYWLPWLVGMPAETCLAICSMIFGGVFQRLPNLKVCFAHGGGSFPFTIGRIEHGFNARPDLCAVVNPINPREYIGKFWVDSLVHDEEALKFLVNLMGEKKVTLGTDYPFPLGELVPGQLIESIKEFSETTKENLLGGNALEFLGLDPNKYLEGHHHHHH", "soluble on expression in E. coli": "soluble"},
      {"sequence": "MSLEQDKYLTVAAITKYIEKKFEVDPYMKQVFVRGEISNLKQPASGHLYFTVKDEFAMLRSVMFHKAVQKIGFVPEDGMNVLVTGRIGVFTKAGRYQFYAEHMEPDGVGALYIQLEQLKAQLEKEGLFAETHKKVLPSFPSKVAVVTSKTGAAVRDILTTIHRRMPSVEVIVYPTIVQGEKAAQKIVENIGKINQRNDIDVMIIGRGGGSLEELWAFNEEPVVRAVYDSDVPVISAVGHETDFALSDFSADVRAATPTAAAELAVPDYRDLEERLAERKYRLLAVTRQALERKERSLEQLKQHLILNGPKHQLEQQMERTDYFSERLNNAFSKQIFVKQTAFDRLNDRLHYYHPNKEIELQKEQMTLHLQALDKAMKQLLKDKQQSFFRQVDALEHLSPLSLLKRGFGVTYKENTLVKSVQELEVGDNIQVKMQGGHIDALITAKEEDISGNEGHHHHHH", "soluble on expression in E. coli": "soluble"},
      {"sequence": "MSLEQLVLAIDLGTSGCKCALVSMEVDIRSWAFHGVPLHVSGLSAEQEPEDWWNAFMLGAHELLGADPLRRRQVVAICCSTQSEGTVCVDRNGAAIGRALLWLDKRGADSIKQRMGGGWCNLGGYGPLKLWRSLRLTGGVASLSGMDSAGHMAYILDHDPARYEKTHKFLNVLDYMNMRLSGRYCATGDSMLTAWITDNRDPHRIRYDDGLIRALGIDAGKLPELVGSTEVIGTLKPELADVLGLPRSTPVVAGAVDTSAVAVGATVRDFAPHLYLGTSSWVGAHVPFKKSSVRHHIAAVPSAVKGRYLAMAMQSAAGANLSFLRDKVLYHPDELLSDEQQPDVYALLDRIAARVPPGSRGLIYTPWLCGERSPVGDPSLRAGLINLKLEHSREDIIRAFMEGVAHNTRWMLEPFSRFIGQSSEIIVATGGGAQSDVWCQIMADVCGRVIQQPHNPIQTNARGAAFIAAVALGKLQFNDLPTLQRPHRLYEPSRSTRNLYDNRFATFKEVRKRLAPLYRRLNPSQETTEGHHHHHH", "soluble on expression in E. coli": "not soluble"},
      {"sequence": "MSLEWTKLTGTLKPDKDVKRGMLAIQPLGKGQFQLDVVSLFPSDTWDNGKSVFRADIMQNLKEYAPDFIRFPGGCIVHGVNEATMYHWKKTIGPIENRPGQWSKWAPYYRTDGIGYHEFYELCEYLGADAMYVIPTGMICTGWVKQSSPWNFIQPDVDLDAYIQDALDAIEYAIGPETSKWGALRVKNGHPKPFPLKYIEIGNEDFGPVYWERYEKIYQALHRQYPDLIYIANSIIGKENDDKRIDIAKFVNPKNVKVFDEHHYQPVEWACKQHYRFDNYERGIADLFVGELGIDGKYPYNLLASGAVRMSLERNGDLNPLLAERPVMRHWDFSEHRQLHSMLINGVDCSIRTSFYYLSKMFRDHTFDVCLDAGIQGMKGLQNVFVTMGYDSESKEYILKLINLRKQEVVLQTAVKGFGKKIQAQKITLSLEPGKNNTPEMPDAVKPVQSTVTLDLNKDLQLEASSMIVYRFKEGHHHHHH", "soluble on expression in E. coli": "not soluble"},
      {"sequence": "MSLEYFDMRKMSVNLWRNAAGETREICTFPPAKRDFYWRASITSIAANGEFSLFPGMERIVTLLEGGEMFLESADRFNHTLKPLQPFSFAADLVVKAKLTAGQMSMDFNIMTRLDVCKAKVRIAERTFTTFGSRGGVVFVINGAWQLGDKLLTTDQGACWFDGRHTLRLLQPQGKLLFSEINWLAGHSEGHHHHHH", "soluble on expression in E. coli": "not soluble"},
      {"sequence": "MSLFFIYDFAMIMQFNSRYSDLNAKLYHQQAPVPLKGAKAGHFNEAIADELQWTSQEKQSWVDICSGQKTFDAFKPLAMVYAGHQFGQWAGQLGDGRGLLIGQVLHRSGQTIDLHLKGAGLTPYSRMGDGRAVLRSVIREYLAGHALNSLRVASSNAIGFTTSEQGVQRETLEQGAMLLRTSDCHIRLGHFEWINQYAPELLAEFTQKCIEWHYPEALQAEHPILAFAEGVIKNTAKMIADWQLVGFAHGVMNTDNLNITGSTLDFGPYGFMERFRPNWINNHSDHQGRYAYQNQPSIAHWNLWIWLNNLIPLSKPEDKETFKKQLADCLEHFEPTFLTAYTEGLCKKLGLPDFHKDSFDCGMAFLKVLQSEQLDYTQSFLRLQNHDYKALRDDCLDTRQFDDFLNLYHQIREHQDITALDQTMCDVNPVYILRNHMAQQAIEQAERGDFSEVERLFTLLAKPFTRQPALEKEQDLAPLPSDVPEIMVSCSSEGHHHHHH", "soluble on expression in E. coli": "not soluble"},
      {"sequence": "MSLFLMDQYIKVDITVEENEQERIMAELLAIGFDSFAEHANMLEAYVEKSAFSEADLKEVLHEVNPAYTYTFAEMPNINWNEEWEKNFDPLVIANQCYVRASFHAERPEFQYEVVINPKMSFGTGHHAEGHHHHHH", "soluble on expression in E. coli": "soluble"},
      {"sequence": "MSLFPDKYDSYLYINQDKIREDLKRALKDALRICLFHITHKSPNIRTEKATRICYYRECGYTDEQIIDKILEEEYVGFVDNIESAIKSREARFRNPQNSAKIACFTENVQSKYMWDRYADGYKGFALEYDLRNCVFKYNKLGMNVNLFPVIYTDLRPDVTLDEGNIHTYEYFKQIGDKNWLNYLNSIISVNQLYWYKAYLYKDQKEYEHEHEWRMLYYNFENEEDYASIPDTGCLKAIYYGPDIAKKDKEKLHRIAVKKGLKEYDVNLDAESRKYDLKVTMFQEGHHHHHH", "soluble on expression in E. coli": "not soluble"},
      {"sequence": "MSLFQITKSKLRFPLSTFTKRYSSFQAAKSVIDKAAIDGELRVFIVSGEVSGDNIGSRLMSSLKKLSPLPIRFNGVGGSLMCKKGLNSLFPMEDLAVMGVWELLPHLYKFRVKLKETIDAAVKFKPHVVVTVDSKGFSFRLLKELRGKQHKTCFIKLVRENHEGHHHHHH", "soluble on expression in E. coli": "not soluble"},
      {"sequence": "MSLFQITKVEARIANYSLHQDRVIITSLGIHDRSRYLIITLTDELENQGFGEAATVMIWSGEAAETGLWIVQNRITPLLTGSHYDHPSEILTILDRALQGNPFLKASIDIAAWDLWARRQEKPVSALIGDRKPVESVPTRFSIGAYSVEDTVRLAVESWEAGIRTLKIKTGVPGLDDVARLKAVRERLGKEPILTIDANGAYQTEDQAVAAIEELLPFNLALVEQPTPRDRIGMMARVKQRVDVPILADESIFTPGELAEALDCDAMDLLSLYPGKNGGFTNSLKMAQTAQNAGKYCVIGSNMETDLGQAAMVCLAASLTAFPVEEYASDLMTGMIYTASSTSPALELNNGRLLTPLGTGFGVEPLHDEGHHHHHH", "soluble on expression in E. coli": "soluble"},
      {"sequence": "MSLGATNRLACYSDPADHYSHRVRLVLAEKGVSVQLIDVDPAHLPRKLAEVNPYGSVPTLVDRDLALYESTVVMEYLEERYPHPPLMPVYPVARGNSRLLMHRIQRDWCALADTVLDPRSSEAARTEARKALRESLTGVSPLFSEFACFMSDEQSLVDCCLLPILWRLPVLGIELPRQAKPLLDYMERQFAREPFQASLSSVEREMRKLEGHHHHHH", "soluble on expression in E. coli": "soluble"},
      {"sequence": "MSLGDRMKIVMVTHGGEGDAFWDRVRKGAEAAAAKDGVDLTYAGDADTADQADLVRDAIRDKADGIAVTLAKPQAMKAPVAEAKAAGIPVVGLNSGIDAWRSTGLLEYFGQDESVAGRAVGDKLDDLRAKHALCVIHERGNVALEARCAGVKKTFGGETEMLYVEGTDMKAVGAAVTARLRQDPSIDEVVMNGAAFALTAVEAVDEAGSDAHVATFDLDNDLVAAVKRGDVQFAVDQQPYLQGYLAVDALWLYRTNGNVSGGGVAPVLTGPAFVTREGHHHHHH", "soluble on expression in E. coli": "soluble"}
    ]}
  ]
}
